The values that follow come from patent publication US20140242077A1 (AbbVie / Abbott, published 2014).

Holding throughout (assay): flow cytometry on activated human T-cells
A general note: In flow cytometry, cells or beads pass a laser one at a time.

One experiment has as its target T1, LAG3 (human, UniProt P18627 23-525).
T1 construct: whole, on cells; The intended T-cell surface marker of the LAG3 variable domains
T1 sequence (looked up): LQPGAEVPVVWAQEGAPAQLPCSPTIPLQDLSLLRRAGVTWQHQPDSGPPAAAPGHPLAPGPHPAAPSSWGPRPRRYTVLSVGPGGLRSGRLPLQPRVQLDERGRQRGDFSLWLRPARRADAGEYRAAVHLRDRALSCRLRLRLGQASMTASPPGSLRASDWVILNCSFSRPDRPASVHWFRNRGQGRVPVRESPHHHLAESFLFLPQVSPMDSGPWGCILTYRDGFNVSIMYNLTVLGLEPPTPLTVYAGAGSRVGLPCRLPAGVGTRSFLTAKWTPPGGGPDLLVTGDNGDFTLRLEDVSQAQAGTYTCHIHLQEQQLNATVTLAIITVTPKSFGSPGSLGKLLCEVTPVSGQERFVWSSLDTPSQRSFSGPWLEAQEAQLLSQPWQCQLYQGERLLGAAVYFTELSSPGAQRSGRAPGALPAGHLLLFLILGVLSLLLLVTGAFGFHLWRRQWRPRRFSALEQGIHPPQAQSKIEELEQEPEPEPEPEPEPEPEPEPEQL
As for the experimental part:
(§1) PBMCs were isolated from heparinized leukopaks by use of Ficoll density gradient centrifugation. PBMCs were stimulated overnight with CD2/CD3/CD28 beads from a T-Cell Activation/Expansion Kit (Miltenyi Biotech, Germany) according to the manufacturer's protocol. Activated T-cells were incubated with primary antibody for 1 hour at 4° C., washed in PBS, and then incubated for 30 minutes with fluorescently-labeled secondary anti-Fc specific antibody (Jackson ImmunoResearch, West Grove, Pa.). Activated T-cell samples were analyzed on a FACSCantoII cytometer (BD) and data were analyzed with FlowJo software. Geometric mean fluorescence intensity was compared to DVD-Ig protein concentration by graphing in the GraphPad Prism software package (see FIG. 14).

Another experiment concerns the target T2, 4-1BB (human, UniProt Q07011 24-255).
T2 construct: whole, on cells; The intended T-cell surface marker of the 41BB variable domains; also called CD137; TNFRSF9
Here is the method: as §1

A further experiment deals with T3, PD1 (human, UniProt Q15116 25-288).
T3 construct: whole, on cells; The intended T-cell surface marker of the PD1 variable domains; also called programmed cell death protein 1
Here is the method:
as §1

T2 sequence (Q07011 24-255): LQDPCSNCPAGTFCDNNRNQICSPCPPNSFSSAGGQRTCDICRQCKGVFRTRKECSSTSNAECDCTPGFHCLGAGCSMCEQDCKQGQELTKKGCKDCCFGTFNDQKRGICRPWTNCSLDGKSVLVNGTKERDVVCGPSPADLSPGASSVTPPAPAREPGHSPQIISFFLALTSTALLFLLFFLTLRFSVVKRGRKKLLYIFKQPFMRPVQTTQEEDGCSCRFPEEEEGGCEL
T3 sequence (Q15116 25-288): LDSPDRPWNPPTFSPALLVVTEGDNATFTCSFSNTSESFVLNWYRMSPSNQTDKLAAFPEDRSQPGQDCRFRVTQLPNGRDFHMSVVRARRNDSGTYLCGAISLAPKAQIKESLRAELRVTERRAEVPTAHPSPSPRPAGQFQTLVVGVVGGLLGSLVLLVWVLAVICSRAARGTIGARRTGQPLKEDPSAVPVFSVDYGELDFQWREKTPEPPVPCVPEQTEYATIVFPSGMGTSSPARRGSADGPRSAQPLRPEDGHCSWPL

B1: DVD2567 (bispecific antibody)
VH: QVQLQQWGAGLLKPSETLSLTCAVYGGSFSGYYWSWIRQSPEKGLEWIGEINHGGYVTYNPSLESRVTISVDTSKNQFSLKLSSVTAADTAVYYCARDYGPGNYDWYFDLWGRGTLVTVSSASTKGPQVQLQQWGAGLLKPSETLSLTCAVYGGSFSDYYWNWIRQPPGKGLEWIGEINHNGNTNSNPSLKSRVTLSLDTSKNQFSLKLRSVTAADTAVYYCAFGYSDYEYNWFDPWGQGTLVTVSS
VL: EIVLTQSPATLSLSPGERATLSCRASQSVSSYLAWYQQKPGQAPRLLIYDASNRATGIPARFSGSGSGTDFTLTISSLEPEDFAVYYCQQRSNWPPALTFGGGTKVEIKRTVAAPEIVLTQSPATLSLSPGERATLSCRASQSISSYLAWYQQKPGQAPRLLIYDASNRATGIPARFSGSGSGTDFTLTISSLEPEDFAVYYCQQRSNWPLTFGQGTNLEIKR
notes: Four-chain DVD-Ig; also called DVD2567H/DVD2567L; 41BB/LAG3 DVD-Ig
Turning to B1, the binding result in the experiment with LAG3 and in the experiment with 4-1BB was “binds” each time.

B2: DVD2568 (bispecific antibody)
VH: QVQLQQWGAGLLKPSETLSLTCAVYGGSFSGYYWSWIRQSPEKGLEWIGEINHGGYVTYNPSLESRVTISVDTSKNQFSLKLSSVTAADTAVYYCARDYGPGNYDWYFDLWGRGTLVTVSSASTKGPSVFPLAPQVQLQQWGAGLLKPSETLSLTCAVYGGSFSDYYWNWIRQPPGKGLEWIGEINHNGNTNSNPSLKSRVTLSLDTSKNQFSLKLRSVTAADTAVYYCAFGYSDYEYNWFDPWGQGTLVTVSS
VL: EIVLTQSPATLSLSPGERATLSCRASQSVSSYLAWYQQKPGQAPRLLIYDASNRATGIPARFSGSGSGTDFTLTISSLEPEDFAVYYCQQRSNWPPALTFGGGTKVEIKRTVAAPEIVLTQSPATLSLSPGERATLSCRASQSISSYLAWYQQKPGQAPRLLIYDASNRATGIPARFSGSGSGTDFTLTISSLEPEDFAVYYCQQRSNWPLTFGQGTNLEIKR
notes: Four-chain DVD-Ig; also called DVD2568H/DVD2568L; 41BB/LAG3 DVD-Ig
Consider B2, for which the binding result with LAG3 and in the experiment with 4-1BB was “binds” each time.

B3: DVD2555 (bispecific antibody)
VH: QVQLVESGGGVVQPGRSLRLDCKASGITFSNSGMHWVRQAPGKGLEWVAVIWYDGSKRYYADSVKGRFTISRDNSKNTLFLQMNSLRAEDTAVYYCATNDDYWGQGTLVTVSSASTKGPQVQLQQWGAGLLKPSETLSLTCAVYGGSFSDYYWNWIRQPPGKGLEWIGEINHNGNTNSNPSLKSRVTLSLDTSKNQFSLKLRSVTAADTAVYYCAFGYSDYEYNWFDPWGQGTLVTVSS
VL: EIVLTQSPATLSLSPGERATLSCRASQSVSSYLAWYQQKPGQAPRLLIYDASNRATGIPARFSGSGSGTDFTLTISSLEPEDFAVYYCQQSSNWPRTFGQGTKVEIKRTVAAPEIVLTQSPATLSLSPGERATLSCRASQSISSYLAWYQQKPGQAPRLLIYDASNRATGIPARFSGSGSGTDFTLTISSLEPEDFAVYYCQQRSNWPLTFGQGTNLEIKR
notes: Four-chain DVD-Ig; also called DVD2555H/DVD2555L; PD1/LAG3 DVD-Ig
B3: in the experiment with PD1, the binding result is listed as “binds”.

B4: DVD2556 (bispecific antibody)
VH: QVQLVESGGGVVQPGRSLRLDCKASGITFSNSGMHWVRQAPGKGLEWVAVIWYDGSKRYYADSVKGRFTISRDNSKNTLFLQMNSLRAEDTAVYYCATNDDYWGQGTLVTVSSASTKGPSVFPLAPQVQLQQWGAGLLKPSETLSLTCAVYGGSFSDYYWNWIRQPPGKGLEWIGEINHNGNTNSNPSLKSRVTLSLDTSKNQFSLKLRSVTAADTAVYYCAFGYSDYEYNWFDPWGQGTLVTVSS
VL: EIVLTQSPATLSLSPGERATLSCRASQSVSSYLAWYQQKPGQAPRLLIYDASNRATGIPARFSGSGSGTDFTLTISSLEPEDFAVYYCQQSSNWPRTFGQGTKVEIKRTVAAPEIVLTQSPATLSLSPGERATLSCRASQSISSYLAWYQQKPGQAPRLLIYDASNRATGIPARFSGSGSGTDFTLTISSLEPEDFAVYYCQQRSNWPLTFGQGTNLEIKR
notes: Four-chain DVD-Ig; also called DVD2556H/DVD2556L; PD1/LAG3 DVD-Ig
On to B4, for which the binding result in the experiment with PD1 was “binds”.

B5: DVD2557 (bispecific antibody)
VH: QVQLQQWGAGLLKPSETLSLTCAVYGGSFSDYYWNWIRQPPGKGLEWIGEINHNGNTNSNPSLKSRVTLSLDTSKNQFSLKLRSVTAADTAVYYCAFGYSDYEYNWFDPWGQGTLVTVSSASTKGPQVQLVESGGGVVQPGRSLRLDCKASGITFSNSGMHWVRQAPGKGLEWVAVIWYDGSKRYYADSVKGRFTISRDNSKNTLFLQMNSLRAEDTAVYYCATNDDYWGQGTLVTVSS
VL: EIVLTQSPATLSLSPGERATLSCRASQSISSYLAWYQQKPGQAPRLLIYDASNRATGIPARFSGSGSGTDFTLTISSLEPEDFAVYYCQQRSNWPLTFGQGTNLEIKRTVAAPEIVLTQSPATLSLSPGERATLSCRASQSVSSYLAWYQQKPGQAPRLLIYDASNRATGIPARFSGSGSGTDFTLTISSLEPEDFAVYYCQQSSNWPRTFGQGTKVEIKR
notes: Four-chain DVD-Ig; also called DVD2557H/DVD2557L; LAG3/PD1 DVD-Ig
In the case of B5, in the experiment with PD1, the binding result is “binds”.

B6: DVD2569 (bispecific antibody)
VH: QVQLQQWGAGLLKPSETLSLTCAVYGGSFSDYYWNWIRQPPGKGLEWIGEINHNGNTNSNPSLKSRVTLSLDTSKNQFSLKLRSVTAADTAVYYCAFGYSDYEYNWFDPWGQGTLVTVSSASTKGPQVQLQQWGAGLLKPSETLSLTCAVYGGSFSGYYWSWIRQSPEKGLEWIGEINHGGYVTYNPSLESRVTISVDTSKNQFSLKLSSVTAADTAVYYCARDYGPGNYDWYFDLWGRGTLVTVSS
VL: EIVLTQSPATLSLSPGERATLSCRASQSISSYLAWYQQKPGQAPRLLIYDASNRATGIPARFSGSGSGTDFTLTISSLEPEDFAVYYCQQRSNWPLTFGQGTNLEIKRTVAAPEIVLTQSPATLSLSPGERATLSCRASQSVSSYLAWYQQKPGQAPRLLIYDASNRATGIPARFSGSGSGTDFTLTISSLEPEDFAVYYCQQRSNWPPALTFGGGTKVEIKR
notes: Four-chain DVD-Ig; also called DVD2569H/DVD2569L; LAG3/41BB DVD-Ig
As to B6, the binding result with LAG3 and with 4-1BB was “binds” each time.

B7: DVD2570 (bispecific antibody)
VH: QVQLQQWGAGLLKPSETLSLTCAVYGGSFSDYYWNWIRQPPGKGLEWIGEINHNGNTNSNPSLKSRVTLSLDTSKNQFSLKLRSVTAADTAVYYCAFGYSDYEYNWFDPWGQGTLVTVSSASTKGPSVFPLAPQVQLQQWGAGLLKPSETLSLTCAVYGGSFSGYYWSWIRQSPEKGLEWIGEINHGGYVTYNPSLESRVTISVDTSKNQFSLKLSSVTAADTAVYYCARDYGPGNYDWYFDLWGRGTLVTVSS
VL: EIVLTQSPATLSLSPGERATLSCRASQSISSYLAWYQQKPGQAPRLLIYDASNRATGIPARFSGSGSGTDFTLTISSLEPEDFAVYYCQQRSNWPLTFGQGTNLEIKRTVAAPEIVLTQSPATLSLSPGERATLSCRASQSVSSYLAWYQQKPGQAPRLLIYDASNRATGIPARFSGSGSGTDFTLTISSLEPEDFAVYYCQQRSNWPPALTFGGGTKVEIKR
notes: Four-chain DVD-Ig; also called DVD2570H/DVD2570L
B7: the binding result with LAG3 and in the experiment with 4-1BB was “binds” in each case.
